For the experiment, the target named is T1, SigE^17–133 (B. subtilis SigE residues 17–133) (B. subtilis, 15N-labelled).
T1 construct: Cloned BamHI/XhoI into pET28-TxrA (His tag, thioredoxin, TEV site)
T1 chain: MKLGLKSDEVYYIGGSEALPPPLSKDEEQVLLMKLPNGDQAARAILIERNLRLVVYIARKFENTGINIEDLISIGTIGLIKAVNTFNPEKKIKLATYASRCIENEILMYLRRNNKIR
The experiment can be described thus: NMR titration; 1H-15N HSQC chemical shift perturbation; 100 uM 15N-labelled SigE 17-133 alone and with a 2-fold excess of unlabelled CsfB A48E; 298 K, 700 MHz; 50 mM HEPES pH 7.5, 150 mM KCl, 0.5 mM TCEP. Conditions: both partners purified.

B1: CsfB^A48E (natural protein, B. subtilis)
chain: MDETVKLNHTCVICDQEKNRGIHLYTKFICLDCERKVISTSTSDPDYEFYVKKLKSIHTPPLYS
notes: Anti-sigma factor CsfB (Gin), B. subtilis, with the stabilising mutation A48E; In pNIC28 (TEV-cleavable N-terminal His tag); also called CsfB/Gin; Gin; source: E. coli BL21(DE3)pLysS, purified (IMAC, SEC)
For the molecule B1, the binding result was “binds”.

Values taken from PMC10141391, “Structural Analysis of Bacillus subtilis Sigma Factors” (Microorganisms, 2023).
